Experimental data as given in patent US20230159613A1 (published 2023).
Substitutions are numbered along the chain they refer to. In names and notes the source's numbering stands.

T1: KRAS G12V peptide on HLA-A*11:01 (human)
T1 peptide: VVGAVGVGK

T2: other antigen short peptide (source not named) peptide on HLA-A*11:01 (human)
T2 peptide: SSCSSCPLSK

T3: KRAS G12D peptide on HLA-A*11:01 (human)
T3 peptide: VVGADGVGK

T4: KRAS G12V peptide on HLA-A*11:01 (human)
T4 peptide: VVVGAVGVGK

T5: KRAS (short peptide without mutation) peptide on HLA-A*11:01 (human)
T5 peptide: VVGAGGVGK

T6: KRAS G12D peptide on HLA-A*11:01 (human)
T6 peptide: VVVGADGVGK

T7: KRAS (short peptide without mutation) peptide on HLA-A*11:01 (human)
T7 peptide: VVVGAGGVGK

B1: KRAS G12V antigen short peptide-specific TCR of SEQ ID NOs 1 and 5 (TCR, V domains shown)
Valpha: QKEVEQNSGPLSVPEGAIASLNCTYSDRVSQSFFWYRQYSGKSPELIMSIYSNGDKEDGRFTAQLNKASQYVSLLIRDSQPSDSATYLCASLKGNNDMRFGAGTRLTVKP
Vbeta: GAGVSQSPRYKVAKRGQDVALRCDPISGHVSLFWYQQALGQGPEFLTYFQNEAQLDKSGLPSDRFFAERPEGSVSTLKIQRTQQEDSAVYLCASSSSRWEQQFFGPGTRLTVL
B2: KRAS G12V antigen short peptide-specific soluble single chain TCR of SEQ ID NO 30 (TCR, V domains shown)
Valpha: B1 Valpha with A17E, I18N, A19V, L21I, L75E, S79V
Vbeta: B1 Vbeta with K11L, V12S, A13V, A20T, L39P, F66N, T82V, Q84P, L113D

Tests used:
[1] = target: T1, KRAS G12V peptide on HLA-A*11:01; experiment: Kd or kinetics
[2] = target: T2, other antigen short peptide (source not …); experiment: cytokine release
[3] = target: T3, KRAS G12D peptide on HLA-A*11:01; experiment: cytokine release
[4] = target: T4, KRAS G12V peptide on HLA-A*11:01; experiment: cytokine release
[5] = target: T5, KRAS (short peptide without mutation) …; experiment: cytokine release
[6] = target: T6, KRAS G12D peptide on HLA-A*11:01; experiment: cytokine release
[7] = target: T7, KRAS (short peptide without mutation) …; experiment: cytokine release

Row | Binder | binding result [1] | binding result [2] | binding result [3] | binding result [4] | binding result [5] | binding result [6] | binding result [7]
1 | B1 | recognises | no recognition | no recognition | recognises | no recognition | no recognition | no recognition
2 | B2 | recognises | – | – | – | – | – | –
